Experimental data from publication PMC3630167.

Molecular target: purified native poly-γ-D-glutamic acid (γDPGA) from B. licheniformis strain 9945 (B. licheniformis)
Test: ELISA

Substance | fold more mAb required for OD450 = 2.0 than with the IgG3 subclass [fold]
mAb F24F2 IgG1 subclass switch variant (antibody) | > 15
mAb F24F2 IgG2a subclass switch variant (antibody) | > 15
mAb F24F2 IgG2b subclass switch variant (antibody) | > 15
mAb F26G3 IgG1 subclass switch variant (antibody) | > 15
mAb F26G3 IgG2a subclass switch variant (antibody) | > 15
mAb F26G3 IgG2b subclass switch variant (antibody) | > 15
